Assay results from patent US20210155689A1 (SHANGHAI PHARMAEXPLORER, published 2021).

T1: human LAG-3 protein with hFc tag (hLAG-3-hFc protein) (human, UniProt P18627 23-450)
T1 construct: also called immunogen 1; LAG-3 extracellular domain protein; not shown: human IgG Fc fragment (hFc) of the pCpC vector
T1 sequence: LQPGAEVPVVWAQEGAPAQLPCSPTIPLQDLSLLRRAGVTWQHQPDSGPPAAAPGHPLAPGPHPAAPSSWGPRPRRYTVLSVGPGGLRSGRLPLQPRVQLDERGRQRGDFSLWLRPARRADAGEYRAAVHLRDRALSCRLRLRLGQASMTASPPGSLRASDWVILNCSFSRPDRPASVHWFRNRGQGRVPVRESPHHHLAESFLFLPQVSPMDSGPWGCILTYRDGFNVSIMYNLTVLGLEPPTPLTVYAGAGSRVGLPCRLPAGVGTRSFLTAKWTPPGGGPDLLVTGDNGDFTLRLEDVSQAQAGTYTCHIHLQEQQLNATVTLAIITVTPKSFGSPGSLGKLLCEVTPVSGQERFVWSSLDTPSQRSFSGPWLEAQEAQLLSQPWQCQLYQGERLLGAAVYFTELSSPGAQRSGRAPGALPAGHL

T2: monkey LAG-3 on cells (HEK293-cLAG-3 stable cell line) (monkey, UniProt P18627 24-525 (human entry))
T2 construct: Full-length monkey (Chinese monkey) LAG-3 gene expressed on HEK293 cells
T2 chain: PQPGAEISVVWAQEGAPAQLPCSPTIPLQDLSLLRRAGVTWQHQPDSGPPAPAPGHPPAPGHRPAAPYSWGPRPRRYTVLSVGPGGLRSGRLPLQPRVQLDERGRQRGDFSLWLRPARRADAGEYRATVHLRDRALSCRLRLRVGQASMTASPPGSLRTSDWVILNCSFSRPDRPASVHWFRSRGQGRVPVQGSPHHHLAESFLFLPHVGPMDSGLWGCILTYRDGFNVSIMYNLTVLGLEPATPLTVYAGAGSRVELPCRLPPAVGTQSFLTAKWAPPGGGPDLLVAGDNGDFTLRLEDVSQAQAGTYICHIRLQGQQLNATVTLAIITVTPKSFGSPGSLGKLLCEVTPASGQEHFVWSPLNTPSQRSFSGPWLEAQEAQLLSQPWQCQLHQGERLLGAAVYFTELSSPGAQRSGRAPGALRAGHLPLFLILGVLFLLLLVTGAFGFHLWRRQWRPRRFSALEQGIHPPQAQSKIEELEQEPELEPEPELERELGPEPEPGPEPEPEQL

T3: LAG-3-hFc protein (human LAG-3 extracellular region with hFc tag) (human, UniProt P18627 23-450)
T3 construct: also called hLAG-3-hFc; LAG-3 protein; not shown: human IgG Fc fragment (hFc) of the pCpC vector
T3 sequence: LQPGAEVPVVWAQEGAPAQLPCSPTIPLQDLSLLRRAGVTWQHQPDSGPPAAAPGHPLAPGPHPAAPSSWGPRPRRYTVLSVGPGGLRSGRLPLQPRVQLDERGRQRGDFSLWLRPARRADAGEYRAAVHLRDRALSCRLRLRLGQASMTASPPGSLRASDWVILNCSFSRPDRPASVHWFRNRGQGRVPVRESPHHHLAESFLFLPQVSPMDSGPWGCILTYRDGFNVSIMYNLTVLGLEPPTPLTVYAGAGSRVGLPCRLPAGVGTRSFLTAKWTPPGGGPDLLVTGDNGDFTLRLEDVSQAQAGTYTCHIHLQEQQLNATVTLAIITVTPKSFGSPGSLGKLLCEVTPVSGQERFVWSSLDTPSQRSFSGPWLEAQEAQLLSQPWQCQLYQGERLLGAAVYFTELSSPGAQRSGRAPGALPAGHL

B1: 405B8H3 (mouse antibody purified from hybridoma) (antibody, V domains shown)
VH: QVQLQQSGAELVRPGASVTLSCKASGYTFTDYEMHWVKQTPVHGLEWIGATDPETGNSAYNQKFKGKAIMTADKSSSTAYMELRSLTSEDSAVYYCISTGWNDWGQGTSLTVSS
VL: DIKMTQSPSSMYASLGERVTITCKASQDINSYLSWFQQKPGKSPKTLIYRADRLLDGVPSRFSGSGSGQDYSLTISSLEYGDMGIYYCLQYDEFPYTFGGGTKLEIK
notes: also called mAb103-405B8H3; 405B81-13
B2: 105F1E10 (LAG-3 mouse-human chimeric antibody) (antibody, V domains shown)
VH: EVQLQQSGPELVKPGASVKMSCRASGYTFTDFKMHWMKQSHGKSLEWIGYIAPNNGGTAYNQKFRGKATLTVNESSNTAYMELRSLTSEDSAVYYCVDWDDVDYWGQGTTLTVSS
VL: DIKMTQSPSSMYASLGERVTITCKASQDINSYLSWFQQKSGKSPKTLIYRANRLVDGVPSRFSGSGSGQDYSLTISSLEYEDMGIYYCLQYVEFPLTFGAGTKLELK
B3: 405B8H3 (LAG-3 mouse-human chimeric antibody) (antibody, V domains shown)
VH: QVQLQQSGAELVRPGASVTLSCKASGYTFTDYEMHWVKQTPVHGLEWIGATDPETGNSAYNQKFKGKAIMTADKSSSTAYMELRSLTSEDSAVYYCISTGWNDWGQGTSLTVSS
VL: DIKMTQSPSSMYASLGERVTITCKASQDINSYLSWFQQKPGKSPKTLIYRADRLLDGVPSRFSGSGSGQDYSLTISSLEYGDMGIYYCLQYDEFPYTFGGGTKLEIK
notes: also called mouse-human chimeric antibody 405B8H3
B4: 105F1E10 (mouse antibody purified from hybridoma) (antibody, V domains shown)
VH: EVQLQQSGPELVKPGASVKMSCRASGYTFTDFKMHWMKQSHGKSLEWIGYIAPNNGGTAYNQKFRGKATLTVNESSNTAYMELRSLTSEDSAVYYCVDWDDVDYWGQGTTLTVSS
VL: DIKMTQSPSSMYASLGERVTITCKASQDINSYLSWFQQKSGKSPKTLIYRANRLVDGVPSRFSGSGSGQDYSLTISSLEYEDMGIYYCLQYVEFPLTFGAGTKLELK
notes: also called mAb009-105F1E10
B5: 409D4E10 (LAG-3 mouse-human chimeric antibody) (antibody, V domains shown)
VH: QVQLQQSGAELVRPGASVTLSCKASGNTFTDYEMHWVKQTPVHGLEWIGATDPETDNTAYNQKFKGKAILTTDKSSSTAYMELRSLTSEDSAVYYCITSGWNDWGQGTSLTVSS
VL: DIKMTQSPSSMYASLGERVTITCKASQDINSYLSWFQQKPGKSPKTLIYRANRLLDGVPSRFSGSGSGQDYSLTISSLEYEDMGIYYCLQYNEFPYTFGGGTKLEIK
B6: 409D4E10 (mouse antibody purified from hybridoma) (antibody, V domains shown)
VH: QVQLQQSGAELVRPGASVTLSCKASGNTFTDYEMHWVKQTPVHGLEWIGATDPETDNTAYNQKFKGKAILTTDKSSSTAYMELRSLTSEDSAVYYCITSGWNDWGQGTSLTVSS
VL: DIKMTQSPSSMYASLGERVTITCKASQDINSYLSWFQQKPGKSPKTLIYRANRLLDGVPSRFSGSGSGQDYSLTISSLEYEDMGIYYCLQYNEFPYTFGGGTKLEIK
notes: also called mAb112-409D4E10
B7: 409B11E12 (LAG-3 mouse-human chimeric antibody) (antibody, V domains shown)
VH: QVQLQQSGAELVRPGASVTLSCKASGYTFTDYEMHWVKQTTVHGLEWIGATDPETSYSAYNQKFKGKAILTADKSSSTAYMELRSLTSEDSAVYYCIATGWNDWGQGTSLTVSS
VL: DLKMTQSPSSMYASLGERVTITCKASQDINSYLSWFQQKPGKSPKTLIYRANRLLDGVPSRFSGSGSGQDYSLTISSLEYEDMGIYYCLQYDEFPYTFGGGTKLEIK
B8: 409B11E12 (mouse antibody purified from hybridoma) (antibody, V domains shown)
VH: QVQLQQSGAELVRPGASVTLSCKASGYTFTDYEMHWVKQTTVHGLEWIGATDPETSYSAYNQKFKGKAILTADKSSSTAYMELRSLTSEDSAVYYCIATGWNDWGQGTSLTVSS
VL: DLKMTQSPSSMYASLGERVTITCKASQDINSYLSWFQQKPGKSPKTLIYRANRLLDGVPSRFSGSGSGQDYSLTISSLEYEDMGIYYCLQYDEFPYTFGGGTKLEIK
notes: also called mAb104-409B11E12
B9: 556F6B8 mouse-human chimeric antibody (antibody, V domains shown)
VH: RVQLKQSGPGLVQPSQSLSITCTVSGFSLIKYGVHWVRQSPGEGLEWLGVIWRGGITDYNAAFMSRLSITKDNSKSQVFFKMNSLQADDTAIYYCAKWDGPLAMDYWGQGTSVTVSS
VL: DIVMTQSHKFLSTSVGDRVSITCKASQDVGTTVAWYQQKPGQSPKLLIYWASTRHTGVPDRFTGSGSGTDFTLTISNVQSEDLADYFCQQYSSYPYTFGGGTKLEIK
notes: also called mAb123-556F6B8; 556F8B8
B10: 556F6B8 (mouse antibody purified from hybridoma) (antibody, V domains shown)
VH: RVQLKQSGPGLVQPSQSLSITCTVSGFSLIKYGVHWVRQSPGEGLEWLGVIWRGGITDYNAAFMSRLSITKDNSKSQVFFKMNSLQADDTAIYYCAKWDGPLAMDYWGQGTSVTVSS
VL: DIVMTQSHKFLSTSVGDRVSITCKASQDVGTTVAWYQQKPGQSPKLLIYWASTRHTGVPDRFTGSGSGTDFTLTISNVQSEDLADYFCQQYSSYPYTFGGGTKLEIK
notes: also called mAb123-556F6B8
B11: 556F6B8 (LAG-3 mouse-human chimeric antibody) (antibody, V domains shown)
VH: RVQLKQSGPGLVQPSQSLSITCTVSGFSLIKYGVHWVRQSPGEGLEWLGVIWRGGITDYNAAFMSRLSITKDNSKSQVFFKMNSLQADDTAIYYCAKWDGPLAMDYWGQGTSVTVSS
VL: DIVMTQSHKFLSTSVGDRVSITCKASQDVGTTVAWYQQKPGQSPKLLIYWASTRHTGVPDRFTGSGSGTDFTLTISNVQSEDLADYFCQQYSSYPYTFGGGTKLEIK
notes: also called 556F8B8

Key:
[1] = target: T1, human LAG-3 protein with hFc tag …; assay: FACS, blocks LAG-3-hFc binding to MHC II on Raji; 200.000 nM
Experimental: (§1) The FACS reaction plate incubating the Raji cells was centrifuged to discard the supernatant. The above mixture was added as 100 μl per well to Raji cells and incubated on ice for 1-2 hours. The plate was washed twice with blocking solution (PBS, 2% fetal bovine serum) by centrifugation, added with 100 microliters of fluorescent (Alexa 488)-labeled secondary antibodies per well, and incubated on ice for 1.0 hours. The plate was washed 2-3 times by centrifugation with blocking solution (PBS, 2% fetal bovine serum), added with 100 microliters of PBS per well to suspend cells, and detected using FACS (FACS Calibur, BD) and the results were analyzed. Wherein, the IgG control was murine IgG, and the data in the table is the inhibition rate (%).

[2] = target: T1, human LAG-3 protein with hFc tag …; assay: ELISA, hLAG-3-hFc coated; 0.0000 nM
Experimental: The plate was sealed with plastic film and incubated overnight at 4° C. The plate was washed 2 times with the plate washing solution (PBS+0.01% Tween20) on the next day, and added with the blocking solution (PBS+0.01% Tween20+1% BSA) and blocked at room temperature for 1-2 hours. The blocking solution was poured out, and the plate was added with 50-100 μl of the antibody sample to be tested to each well, incubated at 37° C. for 1-2 hours, and washed 2-3 times with a plate washing solution (PBS+0.01% Tween20). HRP (horseradish peroxidase) labeled secondary antibody was added, and the plate was incubated at 37° C. for 1-2 hours, and washed 2-3 times with a plate washing solution (PBS+0.01% Tween20). 100 μl of TMB substrate was added to each well. After incubated at room temperature for 15-30 minutes, the plate was added with 100 μl of stop solution (1.0N HCl) to each well.

[3] = target: T2, monkey LAG-3 on cells (HEK293-cLAG-3 …); assay: FACS, HEK293-cLAG-3, antibody 200.000 nM
Source text: (§2) The pIRES plasmid with the monkey-derived full-length gene was transfected into the HEK293 cell line to construct a HEK293 stable cell line containing monkey LAG-3 (herein referred to as HEK293-cLAG-3 stable cell line). The HEK293-hLAG-3 stable cell line and HEK293-cLAG-3 stable cell line were expanded in a T-75 cell culture flask to a 90% confluence. The medium was aspirated, and the cells were washed with HBSS (Hanks' Balanced Salt Solution) 1-2 times, then treated with a enzyme-free cell dissociation fluid (Versene solution: Life technology) and the cells were collected. The cells were washed with HBSS buffer for 1-2 times. After counted, the cells were diluted with HBSS to 1-2×10⁶ cells per ml, added with 1% goat serum blocking solution, incubated on ice for 20-30 minutes, and then washed with HBSS for 2 times by centrifugation. The collected cells were suspended in the FACS buffer (HBSS+1% BSA) to 2×10⁶ cells/ml, added as 100 microliters per well to a 96-well FACS reaction plate, added with 100 microliters per well of the antibody sample to be tested, incubated on ice for 1-2 hours. The plate was washed twice with the FACS buffer by centrifugation, added with 100 microliters of fluorescent (Alexa 488)-labeled secondary antibodies per well, and incubated on ice for 0.5-1.0 hours. The plate was washed 2-3 times with FACS buffer by centrifugation, added with 100 μl fixative solution (4% Paraformaldehyde) per well to suspend the cells. 5-10 minutes later, it was washed 1-2 times with FACS buffer by centrifugation. The cells were suspended with 100 microliters of FACS buffer, FACS (FACSCalibur, BD) was used for detection and the results were analyzed.

[4] = target: T3, LAG-3-hFc protein (human LAG-3 …); assay: FACS, inhibition of LAG-3-hFc binding to MHC II on Raji cells, antibody 7.407 nM
Experimental: as §1

[5] = target: T2, monkey LAG-3 on cells (HEK293-cLAG-3 …); assay: FACS, HEK293-cLAG-3, antibody 0.000 nM
Source text: as §2

[6] = target: T3, LAG-3-hFc protein (human LAG-3 …); assay: FACS, inhibition of LAG-3-hFc binding to MHC II on Raji cells, antibody 0.274 nM
Experimental: as §1

| Binder | Inhibition rate (%) [1] | OD450 [2] | other results |
| --- | --- | --- | --- |
| B1 | 93.9% |  |  |
| B2 |  | 0.11 OD450 |  |
| B3 |  | 0.12 OD450 |  |
| B4 | 93.1% |  |  |
| B5 |  | 0.14 OD450 |  |
| B6 | 95.9% |  |  |
| B7 |  | 0.13 OD450 |  |
| B8 | 95% |  |  |
| B9 |  |  | Mean fluorescence intensity [3]: 90.5; Inhibition rate (%) [4]: 82.7%; Mean fluorescence intensity [5]: 3.1; Inhibition rate (%) [6]: 21.5% |
| B10 | 96% |  |  |
| B11 |  | 0.12 OD450 |  |
